According to doi:10.1101/2023.04.06.535761 (bioRxiv, 2023):

T1: StrepII-GFP-RTCB (human, UniProt Q9Y3I0 1-505)
T1 sequence (looked up): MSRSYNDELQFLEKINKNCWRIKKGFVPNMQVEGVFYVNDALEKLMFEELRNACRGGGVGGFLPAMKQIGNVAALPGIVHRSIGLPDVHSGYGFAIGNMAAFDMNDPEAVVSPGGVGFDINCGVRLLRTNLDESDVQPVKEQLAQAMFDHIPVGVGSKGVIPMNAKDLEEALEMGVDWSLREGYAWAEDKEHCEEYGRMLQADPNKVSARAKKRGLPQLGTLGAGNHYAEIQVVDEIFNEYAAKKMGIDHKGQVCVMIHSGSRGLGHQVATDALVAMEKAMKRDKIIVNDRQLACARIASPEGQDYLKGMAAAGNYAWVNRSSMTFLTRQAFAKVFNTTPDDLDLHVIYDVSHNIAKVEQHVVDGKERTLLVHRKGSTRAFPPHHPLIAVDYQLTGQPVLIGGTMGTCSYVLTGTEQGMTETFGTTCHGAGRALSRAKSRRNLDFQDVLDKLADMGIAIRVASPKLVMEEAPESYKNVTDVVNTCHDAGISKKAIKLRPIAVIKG

T2: RTCB (un-guanylylated, apo-RTCB) (human, UniProt Q9Y3I0 1-505)
T2 sequence (looked up): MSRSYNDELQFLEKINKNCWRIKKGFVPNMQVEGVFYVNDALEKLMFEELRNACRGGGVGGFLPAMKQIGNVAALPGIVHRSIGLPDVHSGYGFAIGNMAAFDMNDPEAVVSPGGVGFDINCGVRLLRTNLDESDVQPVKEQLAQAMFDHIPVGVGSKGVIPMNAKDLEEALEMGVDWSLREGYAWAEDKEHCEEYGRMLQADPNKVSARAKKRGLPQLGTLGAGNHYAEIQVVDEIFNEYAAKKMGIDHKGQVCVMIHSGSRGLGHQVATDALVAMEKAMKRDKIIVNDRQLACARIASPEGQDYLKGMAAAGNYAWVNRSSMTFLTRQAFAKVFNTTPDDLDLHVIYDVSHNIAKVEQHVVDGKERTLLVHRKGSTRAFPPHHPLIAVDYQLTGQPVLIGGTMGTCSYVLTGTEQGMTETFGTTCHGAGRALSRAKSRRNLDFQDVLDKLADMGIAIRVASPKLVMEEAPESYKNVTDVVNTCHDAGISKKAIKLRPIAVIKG


Assays:
[1] = target: T1, StrepII-GFP-RTCB; assay: pull-down
[2] = target: T2, RTCB (un-guanylylated, apo-RTCB); assay: cryo-EM structure
[3] = target: T1, StrepII-GFP-RTCB; assay: pull-down; remark: listed apart in the source

binding result [1] | stoichiometry N [2] | half-life of the complex upon NADH removal [3] | Binder
binds | – | – | PYROXD1 Δ500 (domain or fragment, human, UniProt Q8WU10 1-499, looked up) MEAARPPPTAGKFVVVGGGIAGVTCAEQLATHFPSEDILLVTASPVIKAVTNFKQISKILEEFDVEEQSSTMLGKRFPNIKVIESGVKQLKSEEHCIVTEDGNQHVYKKLCLCAGAKPKLICEGNPYVLGIRDTDSAQEFQKQLTKAKRIMIIGNGGIALELVYEIEGCEVIWAIKDKAIGNTFFDAGAAEFLTSKLIAEKSEAKIAHKRTRYTTEGRKKEARSKSKADNVGSALGPDWHEGLNLKGTKEFSHKIHLETMCEVKKIYLQDEFRILKKKSFTFPRDHKSVTADTEMWPVYVELTNEKIYGCDFIVSATGVTPNVEPFLHGNSFDLGEDGGLKVDDHMHTSLPDIYAAGDICTTSWQLSPVWQQMRLWTQARQMGWYAAKCMAAASSGDSIDMDFSFELFAHVTKFFNYKVVLLGKYNAQGLGSDHELMLRCTKGREYIKVVMQNGRMMGAVLIGETDLEETFENLILNQMNLSSYGEDLLDPNIDIEDYF
– | 1 | ~2 min | PYROXD1 (wild type) (enzyme, human, UniProt Q8WU10 1-500, looked up) MEAARPPPTAGKFVVVGGGIAGVTCAEQLATHFPSEDILLVTASPVIKAVTNFKQISKILEEFDVEEQSSTMLGKRFPNIKVIESGVKQLKSEEHCIVTEDGNQHVYKKLCLCAGAKPKLICEGNPYVLGIRDTDSAQEFQKQLTKAKRIMIIGNGGIALELVYEIEGCEVIWAIKDKAIGNTFFDAGAAEFLTSKLIAEKSEAKIAHKRTRYTTEGRKKEARSKSKADNVGSALGPDWHEGLNLKGTKEFSHKIHLETMCEVKKIYLQDEFRILKKKSFTFPRDHKSVTADTEMWPVYVELTNEKIYGCDFIVSATGVTPNVEPFLHGNSFDLGEDGGLKVDDHMHTSLPDIYAAGDICTTSWQLSPVWQQMRLWTQARQMGWYAAKCMAAASSGDSIDMDFSFELFAHVTKFFNYKVVLLGKYNAQGLGSDHELMLRCTKGREYIKVVMQNGRMMGAVLIGETDLEETFENLILNQMNLSSYGEDLLDPNIDIEDYFD
binds | – | – | PYROXD1 D500A (enzyme, human, UniProt Q8WU10 1-500, looked up) MEAARPPPTAGKFVVVGGGIAGVTCAEQLATHFPSEDILLVTASPVIKAVTNFKQISKILEEFDVEEQSSTMLGKRFPNIKVIESGVKQLKSEEHCIVTEDGNQHVYKKLCLCAGAKPKLICEGNPYVLGIRDTDSAQEFQKQLTKAKRIMIIGNGGIALELVYEIEGCEVIWAIKDKAIGNTFFDAGAAEFLTSKLIAEKSEAKIAHKRTRYTTEGRKKEARSKSKADNVGSALGPDWHEGLNLKGTKEFSHKIHLETMCEVKKIYLQDEFRILKKKSFTFPRDHKSVTADTEMWPVYVELTNEKIYGCDFIVSATGVTPNVEPFLHGNSFDLGEDGGLKVDDHMHTSLPDIYAAGDICTTSWQLSPVWQQMRLWTQARQMGWYAAKCMAAASSGDSIDMDFSFELFAHVTKFFNYKVVLLGKYNAQGLGSDHELMLRCTKGREYIKVVMQNGRMMGAVLIGETDLEETFENLILNQMNLSSYGEDLLDPNIDIEDYFA
